Molecular target: Cy3-labeled human histone nucleosome core particle reconstituted on the Widom 601 sequence (human) (UniProt P62807)
Assay: single-molecule fluorescence imaging on optical tweezers

HaloTag-635-LIG3α (wild type, nuclear DNA ligase IIIα) (enzyme)
lifetime: 24 s

Reference: publication PMC12748704
